Data from patent publication US20250043302A1, “MUTATED HYDROXYPHENYLPYRUVATE DIOXYGENASE POLYPEPTIDE, AND CODING GENE AND USE THEREOF” (BEIJING DABEINONG BIOTECHNOLOGY CO., LTD., priority 2021, published 2025).

Columns and labels:
[1] = tested on: Arabidopsis thaliana T1 plants; assay: Isoxaflutole tolerance of transgenic Arabidopsis thaliana T1 plants (spray, bleached leaf area grade, damage score); format: in vivo; settings: 7 DAT, Table 2; for Scores: pesticide damage score 0-100;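 as to Scores: Weighted damage index from 0 to 100 where higher means more damage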
Summary of the method: (§1)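 Damage graded 0–3 from the proportion of bleached leaf area 7 days after spraying. Plants were glufosinate-selected T1 lines, 18 days after sowing, plus vector and wild-type controls. Rates: mesotrione 52.5–420, isoxaflutole 35–280, topramezone 25–200 g ai/ha, with water (0×).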

[2] = tested on: Arabidopsis thaliana T1 plants; assay: Mesotrione tolerance of transgenic Arabidopsis thaliana T1 plants (spray, bleached leaf area grade, damage score); format: in vivo; parameters: Scores: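 damage score 0-100 computed as Σ(N×S)/(T×M)×100 over grades 0-3 with higher meaning more damage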; settings: for Classification and statistics of the grade of pesticide damage Grade 0 / Classification and statistics of the grade of pesticide damage Grade 1 / Classification and statistics of the grade of pesticide damage Grade 2 / Classification and statistics of the grade of pesticide damage Grade 3: number of plants in grade; for Classification and statistics of the grade of pesticide damage: Grade 0 / Classification and statistics of the grade of pesticide damage: Grade 1 / Classification and statistics of the grade of pesticide damage: Grade 2 / Classification and statistics of the grade of pesticide damage: Grade 3: number of plants
Summary of the method: as §1

[3] = number of plants, isoxaflutole 280 g ai/ha (4×)
[4] = mesotrione 210 g ai/ha (two-fold field concentration), 7 DAT, Table 3
[5] = mesotrione 420 g ai/ha (4×), 7 DAT, Table 3

B1: AsHPPDm-F372A-02: nucleotide sequence encoding Avena sativa HPPD with F372A; vector DBN11728 (nucleic acid)
DNA: ATGCCACCTACTCCAGCTACAGCTACTGGTGCTGCTGCTGCTGCCGTTACTCCTGAGCACGCTGCCAGGTCATTCCCCAGGGTGGTTCGCGTGAACCCCAGATCTGATAGGTTCCCAGTTCTGAGCTTCCACCATGTTGAGCTGTGGTGCGCTGATGCTGCTTCTGCTGCTGGCAGGTTCTCTTTCGCTCTTGGTGCTCCACTCGCTGCTAGATCTGATCTGTCTACAGGAAATAGCGCTCATGCCTCACTCCTGCTTCGCTCAGGTGCTTTGGCCTTCCTCTTCACCGCTCCATATGCTCCCCCACCTCAGGAGGCTGCTACTGCTGCTGCTACAGCCTCCATTCCAAGCTTCTCAGCTGATGCCGCTAGAACCTTCGCTGCTGCTCATGGACTTGCCGTGAGGTCTGTTGGTGTTCGCGTGGCTGATGCTGCTGAGGCTTTCAGAGTTTCCGTTGCCGGCGGAGCTAGGCCAGCTTTCGCTCCTGCTGATTTGGGACATGGTTTCGGCCTGGCTGAGGTTGAGCTTTACGGTGACGTGGTTCTCCGCTTCGTGTCTTACCCAGATGAGACTGACCTGCCTTTCCTTCCCGGCTTCGAGAGAGTTTCCTCTCCTGGTGCCGTGGATTACGGCCTGACAAGGTTCGACCACGTGGTTGGAAACGTTCCCGAGATGGCTCCAGTGATCGATTACATGAAGGGCTTCCTTGGATTCCATGAGTTCGCCGAGTTCACTGCTGAGGACGTGGGAACCACTGAGTCCGGTTTGAACTCTGTGGTTCTCGCCAACAATTCTGAGGCTGTTTTGCTCCCTCTGAATGAGCCTGTGCATGGAACCAAGAGGAGAAGCCAGATTCAAACTTACCTGGAGTACCACGGTGGCCCTGGAGTTCAGCATATCGCCCTTGCTTCTAATGATGTGTTGCGCACACTCAGAGAGATGCGCGCCAGAACCCCCATGGGAGGTTTCGAGTTCATGGCCCCACCACAGGCTAAGTACTACGAGGGCGTTAGAAGGATTGCTGGAGACGTGTTGAGCGAGGAGCAGATCAAGGAGTGCCAAGAGCTGGGTGTTCTTGTGGATAGGGATGACCAGGGCGTTCTGCTTCAAATTGCCACTAAGCCAGTGGGCGACCGCCCTACATTCTTCCTTGAGATGATTCAAAGAATCGGCTGCATGGAGAAGGATGAGGTTGGACAGGAGTACCAAAAGGGCGGATGCGGTGGCTTCGGAAAGGGTAACTTCAGCGAGTTGTTCAAGTCAATCGAGGACTACGAGAAGAGCCTCGAGGTGAAGCAGTCAGTGGTTGCCCAAAAGTCCTGA
modifications: AsHPPDm-F372A-02 Nucleotide Sequence
notes: vector DBN11728
Classification and statistics of the grade of pesticide damage: Grade 3 ([1]; number of plants, isoxaflutole 140 g ai/ha (2×)): 0
Classification and statistics of the grade of pesticide damage: Grade 0 [1, 3]: 0
Classification and statistics of the grade of pesticide damage: Grade 1 [1, 3]: 0
Classification and statistics of the grade of pesticide damage: Grade 2 [1, 3]: 16
Classification and statistics of the grade of pesticide damage: Grade 3 [1, 3]: 0
Scores ([1]; isoxaflutole 140 g ai/ha (2×)): 33
Scores ([1]; isoxaflutole 280 g ai/ha (4×)): 67
tolerance to mesotrione (in words) ([2]; in vivo): different degrees of tolerance
Resistance evaluation ([2]; mesotrione 210 g ai/ha): Moderately
Scores ([2]; mesotrione 210 g ai/ha): 31
Resistance evaluation [2, 4]: moderately
Classification and statistics of the grade of pesticide damage Grade 0 ([2]; mesotrione 210 g ai/ha): 5
Classification and statistics of the grade of pesticide damage Grade 1 ([2]; mesotrione 210 g ai/ha): 7
Classification and statistics of the grade of pesticide damage Grade 2 ([2]; mesotrione 210 g ai/ha): 4
Classification and statistics of the grade of pesticide damage Grade 3 ([2]; mesotrione 210 g ai/ha): 0
Resistance evaluation ([2]; mesotrione 420 g ai/ha): Poorly resistant
Scores ([2]; mesotrione 420 g ai/ha): 50
Resistance evaluation [2, 5]: poorly resistant (poorly resistant plants (scores 34-67))
Classification and statistics of the grade of pesticide damage Grade 0 ([2]; mesotrione 420 g ai/ha): 0
Classification and statistics of the grade of pesticide damage Grade 1 ([2]; mesotrione 420 g ai/ha): 8
Classification and statistics of the grade of pesticide damage Grade 2 ([2]; mesotrione 420 g ai/ha): 8
Classification and statistics of the grade of pesticide damage Grade 3 ([2]; mesotrione 420 g ai/ha): 0
tolerance to mesotrione (resistance class) ([2]; mesotrione at four-fold field concentration): poorly-resistant
tolerance to mesotrione (resistance class) ([2]; mesotrione at two-fold field concentration): moderately-resistant
Classification and statistics of the grade of pesticide damage: Grade 0 [2, 4]: 5
Classification and statistics of the grade of pesticide damage: Grade 1 [2, 4]: 7
Classification and statistics of the grade of pesticide damage: Grade 2 [2, 4]: 4
Classification and statistics of the grade of pesticide damage: Grade 3 [2, 4]: 0
Classification and statistics of the grade of pesticide damage: Grade 0 [2, 5]: 0
Classification and statistics of the grade of pesticide damage: Grade 1 [2, 5]: 8
Classification and statistics of the grade of pesticide damage: Grade 2 [2, 5]: 8
Classification and statistics of the grade of pesticide damage: Grade 3 [2, 5]: 0
Scores ([2]; pesticide damage score 0-100, mesotrione 210 g ai/ha (two-fold field concentration), 7 DAT, Table 3): 31
Scores ([2]; pesticide damage score 0-100, mesotrione 420 g ai/ha (4×), 7 DAT, Table 3): 50
